The text below walks through data of paper doi:10.1101/772293.

Read-outs that look alike come from different tables or passages of the source.

Assay [1] deals with angiotensin AT1 receptor (UniProt P30556). Briefly: genetically encoded conformation-sensitive fluorescent biosensor.
For assay [2] the target is unchanged. Described as above. This is another data set of the same source.

Sequence of UniProt P30556 (P30556 whole entry): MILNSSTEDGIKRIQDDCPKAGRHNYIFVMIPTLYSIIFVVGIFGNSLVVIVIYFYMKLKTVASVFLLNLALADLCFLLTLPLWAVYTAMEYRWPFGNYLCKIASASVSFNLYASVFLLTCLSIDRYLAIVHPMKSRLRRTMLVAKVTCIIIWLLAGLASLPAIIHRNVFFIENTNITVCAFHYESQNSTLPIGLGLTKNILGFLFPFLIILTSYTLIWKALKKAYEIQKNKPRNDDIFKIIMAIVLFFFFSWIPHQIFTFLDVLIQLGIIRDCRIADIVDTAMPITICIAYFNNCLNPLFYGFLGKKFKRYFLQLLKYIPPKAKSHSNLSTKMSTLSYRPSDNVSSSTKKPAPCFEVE

As for “β-arrestin2 sensor (β-arrestin2 inserted into the seventh stave of mNeonGreen) (from UniProt P32121 1-409)”, the t1/2 of arrestin recruitment (0.693/kobs) with 32 uM AngII with angiotensin AT1 receptor [1] was 45 s; in the assay with angiotensin AT1 receptor [2], 44 s. In the assay with angiotensin AT1 receptor [1], this substance registered a t1/2 of arrestin recruitment (0.693/kobs) with 32 uM SII of 84.
